Measurements reported in patent publication US20220089647A1 (FUJIFILM, published 2022).
Starred links: 1 amine or outer side, 2 acyl side, 3 side chain; linkers in the order of their positions; H or OH if unused. Positions of bridges follow the written chain, without caps; N, C: chain ends. Non-standard residues stand in square brackets, D forms with d. Primed or numbered codes have the meaning given here. No end group written: not given here. Dab(acetyl)″ = 2-amino-4-(acetylamino)butanoic acid, acetyl CH3 carbon bonded to the S of Hcy (S-CH2-C(=O)-NH-), O=C(C[*:3])NCC[C@H](N[*:1])C(=O)[*:2]; Dab(acetyl) = 2-amino-4-acetylamino-butanoic acid residue (N-γ-acetyl-diaminobutyric acid), CC(=O)NCC[C@H](N[*:1])C(=O)[*:2]; Dab(acetyl)(3) = 2-amino-4-(acetylamino)butanoic acid (Dab with N-γ-acetyl), CC(=O)NCC[C@H](N[*:1])C(=O)[*:2]; COCH2 = acetyl group that carries the bridge; hCys = N[C@@H](CCS)C(=O)O; Dab = NCC[C@H](N)C(=O)O

B1: Cyclic peptide 54 (peptide)
peptide: KKKG[hCys]IPRGDTFR[Dab(acetyl)″]A
modifications: thioether 5-14
B2: Cyclic peptide 92 (peptide)
peptide: KKKA[hCys]IPRGDSFA[Dab(acetyl)]A
modifications: thioether 5-14
B3: Cyclic peptide 84 (peptide)
peptide: KKKGXIPRGDTFAXG
modifications: not fully specified; KKKG-(Hcy)-IPRGDTFA(Dab(acetyl))G; thioether bond Hcy-Dab(acetyl)
B4: Cyclic peptide 71 (peptide)
peptide: KKKGXLPRGDTFRXA
modifications: not fully specified; KKKG-(Hcy)-LPRGDTFR(Dab(acetyl))A; thioether bond Hcy-Dab(acetyl)
B5: Cyclic peptide 2 (peptide)
peptide: KKKA[hCys]IPRGDNFR[Dab](COCH2)A
modifications: thioether 5-14
B6: Cyclic peptide 86 (peptide)
peptide: KKKG[hCys]IPRGDTFA[Dab(acetyl)]A
modifications: thioether 5-14
B7: Cyclic peptide 1 (peptide)
peptide: KKKG[hCys]IPRGDNFR[Dab(acetyl)(3)]A
modifications: thioether 5-14
B8: Cyclic peptide 77 (peptide)
peptide: KKKAXISRGDTFRXA
modifications: not fully specified; KKKA-(Hcy)-ISRGDTFR(Dab(acetyl))A; thioether bond Hcy-Dab(acetyl)
B9: Cyclic peptide 89 (peptide)
peptide: KKKA[hCys]VTRGDTFR[Dab(acetyl)]A
modifications: thioether 5-14
B10: Cyclic peptide 91 (peptide)
peptide: KKKA[hCys]VPRGDAFA[Dab(acetyl)]A
modifications: thioether 5-14
B11: Cyclic peptide 74 (peptide)
peptide: KKKAXVPRGDTFRXA
modifications: not fully specified; KKKA-(Hcy)-VPRGDTFR(Dab(acetyl))A; thioether bond Hcy-Dab(acetyl)
B12: Cyclic peptide 83 (peptide)
peptide: KKKAXIPRGDTFSXA
modifications: not fully specified; KKKA-(Hcy)-IPRGDTFS(Dab(acetyl))A; thioether bond Hcy-Dab(acetyl)
B13: Cyclic peptide 27 (peptide)
peptide: KKKG[hCys]LPRGDNFR[Dab](COCH2)A
modifications: thioether 5-14
B14: Cyclic peptide 69 (peptide)
peptide: KKKGXEPRGDTFRXA
modifications: not fully specified; KKKG-(Hcy)-EPRGDTFR(Dab(acetyl))A; thioether bond Hcy-Dab(acetyl)
B15: Cyclic peptide 55 (peptide)
peptide: KKKG[hCys]IPRGDTFR[Dab(acetyl)″]G
modifications: thioether 5-14
B16: Cyclic peptide 75 (peptide)
peptide: KKKAXTPRGDTFRXA
modifications: not fully specified; KKKA-(Hcy)-TPRGDTFR(Dab(acetyl))A; thioether bond Hcy-Dab(acetyl)
B17: Cyclic peptide 85 (peptide)
peptide: KKKAXIPRGDTFAXG
modifications: not fully specified; KKKA-(Hcy)-IPRGDTFA(Dab(acetyl))G; thioether bond Hcy-Dab(acetyl)
B18: Cyclic peptide 88 (peptide)
peptide: KKKA[hCys]IPRGDTFG[Dab(acetyl)]A
modifications: thioether 5-14
B19: Cyclic peptide 78 (peptide)
peptide: KKKAXIPRGDVFRXA
modifications: not fully specified; KKKA-(Hcy)-IPRGDVFR(Dab(acetyl))A; thioether bond Hcy-Dab(acetyl)
B20: Cyclic peptide 90 (peptide)
peptide: KKKA[hCys]IPRGDAFA[Dab(acetyl)]A
modifications: thioether 5-14
B21: Cyclic peptide 70 (peptide)
peptide: KKKGXVPRGDTFRXA
modifications: not fully specified; KKKG-(Hcy)-VPRGDTFR(Dab(acetyl))A; thioether bond Hcy-Dab(acetyl)
B22: Cyclic peptide 56 (peptide)
peptide: KKKA[hCys]IPRGDTFR[Dab(acetyl)″]A
modifications: thioether 5-14
B23: Cyclic peptide 87 (peptide)
peptide: KKKA[hCys]IPRGDTFA[Dab(acetyl)]A
modifications: thioether 5-14

Each binder was assayed against T1, human integrin αvβ5 (human, UniProt P06756 31-992; P18084 24-719, limits assumed) (assay: SPR, Biacore 3000, peptide immobilised; A = KD 50 nM or less).
T1 construct: Heterodimer flowed as analyte at 30, 100, 300 and 1,000 nM in HEPES buffer with 5 mM MgCl2
T1 sequence (P06756 31-992 limits assumed, chain 1 of 2): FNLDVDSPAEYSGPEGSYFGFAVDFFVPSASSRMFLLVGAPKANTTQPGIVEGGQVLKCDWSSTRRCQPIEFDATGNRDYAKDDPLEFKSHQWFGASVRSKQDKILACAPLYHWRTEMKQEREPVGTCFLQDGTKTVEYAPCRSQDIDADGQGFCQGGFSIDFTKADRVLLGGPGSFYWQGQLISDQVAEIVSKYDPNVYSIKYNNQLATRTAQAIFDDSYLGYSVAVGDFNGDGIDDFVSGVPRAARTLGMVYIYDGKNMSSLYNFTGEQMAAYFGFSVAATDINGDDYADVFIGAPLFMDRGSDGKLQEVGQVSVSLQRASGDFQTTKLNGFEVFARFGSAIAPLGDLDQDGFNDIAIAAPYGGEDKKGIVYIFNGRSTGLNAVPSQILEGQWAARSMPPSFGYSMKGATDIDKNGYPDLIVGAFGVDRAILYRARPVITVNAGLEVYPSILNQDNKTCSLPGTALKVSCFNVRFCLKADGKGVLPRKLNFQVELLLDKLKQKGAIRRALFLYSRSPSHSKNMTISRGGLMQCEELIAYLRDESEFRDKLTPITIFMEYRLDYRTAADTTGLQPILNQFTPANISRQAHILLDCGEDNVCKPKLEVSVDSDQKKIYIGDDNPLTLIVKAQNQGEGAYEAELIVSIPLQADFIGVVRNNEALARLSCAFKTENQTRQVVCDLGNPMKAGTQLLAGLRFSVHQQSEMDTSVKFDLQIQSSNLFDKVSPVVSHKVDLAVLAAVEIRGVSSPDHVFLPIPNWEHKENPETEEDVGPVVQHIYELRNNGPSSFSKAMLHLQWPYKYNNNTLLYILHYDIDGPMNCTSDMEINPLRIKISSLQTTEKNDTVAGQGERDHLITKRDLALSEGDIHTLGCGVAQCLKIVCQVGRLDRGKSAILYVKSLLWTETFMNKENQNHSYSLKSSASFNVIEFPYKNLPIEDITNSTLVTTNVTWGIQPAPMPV
T1 sequence (P18084 24-719 limits assumed, chain 2 of 2): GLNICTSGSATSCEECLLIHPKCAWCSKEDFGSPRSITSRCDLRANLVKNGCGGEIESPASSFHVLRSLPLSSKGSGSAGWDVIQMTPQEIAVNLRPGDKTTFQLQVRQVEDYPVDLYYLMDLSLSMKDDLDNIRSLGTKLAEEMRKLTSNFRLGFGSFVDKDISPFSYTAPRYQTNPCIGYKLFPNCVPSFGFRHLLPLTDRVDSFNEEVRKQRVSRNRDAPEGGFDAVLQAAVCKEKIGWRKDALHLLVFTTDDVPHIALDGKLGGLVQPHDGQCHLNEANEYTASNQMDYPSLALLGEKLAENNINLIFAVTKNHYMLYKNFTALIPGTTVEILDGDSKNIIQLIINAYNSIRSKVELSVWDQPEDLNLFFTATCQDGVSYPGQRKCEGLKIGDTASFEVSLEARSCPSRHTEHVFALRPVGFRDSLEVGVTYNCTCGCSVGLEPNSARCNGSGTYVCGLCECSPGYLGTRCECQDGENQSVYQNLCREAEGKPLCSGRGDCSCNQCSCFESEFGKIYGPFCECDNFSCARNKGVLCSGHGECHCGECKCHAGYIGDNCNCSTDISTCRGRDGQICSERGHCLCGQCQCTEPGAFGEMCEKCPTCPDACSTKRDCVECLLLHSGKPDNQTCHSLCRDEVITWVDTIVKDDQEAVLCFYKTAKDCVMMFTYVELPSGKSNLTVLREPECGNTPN
Description: However, only for the cyclic peptides 125, 126, and 127, in which the number of lysine residues having an amino group as the immobilizing functional group was zero, the amount of the sample solution to be supplied to the sensor chip was set to 500 μL instead of 20 μL. Further, 70 μL of the mixed aqueous solution of 0.2 M EDC and 0.04 M NHS was added to another flow channel of the same sensor chip without immobilizing the sample, and then blocking treatment and washing treatment were carried out. Hereinafter, the obtained immobilization-treated sensor chip is referred to as an “immobilization-treated sensor chip A”.
After adding human integrin αvβ5 for 10 minutes at 25° C., which was diluted to 30 nM using a HEPES buffer solution to which magnesium chloride was added to 5 mM, in each flow channel of the immobilization-treated sensor chip A prepared in (1) above, the same HEPES buffer solution (containing 5 mM magnesium chloride) was allowed to flow as a running buffer for 30 minutes, and measurement was carried out with Biacore 3000. Then, a regeneration treatment of removing human integrin αvβ5 was carried out by allowing a 0.5 M EDTA aqueous solution to flow through each flow channel for 10 minutes. Further, the above-described measurement process consisting of adding integrin for 10 minutes, allowing a running buffer to flow for 30 minutes, carrying out measurement with Biacore 3000, and carrying out regeneration treatment with 0.5 M EDTA aqueous solution was carried out in the same manner for 100 nM human integrin αvβ5, 300 nM human integrin αvβ5, and 1,000 nM human integrin αvβ5. Dissociation constant between the cyclic peptide and human integrin αvβ5 was calculated from the difference between the value measured by Biacore 3000 in the flow channel immobilized with the cyclic peptide and the value measured by Biacore 3000 in the flow channel unimmobilized with the cyclic peptide, in a case where each concentration of human integrin αvβ5 was allowed to flow, and the integrin binding property was evaluated according to the following evaluation standards. It is preferable that the evaluation result satisfies the evaluation standard A, B, or C.

Dissociation constant (KD), ≤ 50 nM:
B1
B5
B7
B13
B15
B22

Dissociation constant, ≤ 50 nM:
B2
B3
B4
B6
B8
B9
B10
B11
B12
B14
B16
B17
B18
B19
B20
B21
B23
